For the test, the system named is proteins that co-immunoprecipitated with DUX4-CTD constructs expressed in MB135 myoblasts. The experiment in a line: LC-MS of proteins co-immunoprecipitated with DUX4-CTD (Table 1) and western validation. It counts as binding, human. Further details: key to 4. mL1dL2 + Dox + IFNG / 4. + IFNG mix / 4. longCTD + Dox + IFNG / 3. + IFNg + Dox longCTD / 3. + Dox longCTD / 3. + IFNG longCTD: peptide-spectrum matches (PSMs) per protein. To be noted: kind of count not given; for 4. mL1dL2 + Dox + IFNG: LC-MS value per protein co-immunoprecipitated with DUX4-CTD construct mL1dL2 in MB135 myoblasts; for 4. + IFNG mix: LC-MS value per protein co-immunoprecipitated from MB135 myoblasts, + IFNG mix sample (no Dox). In outline:
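Two independent experiments compared uninduced, doxycycline and doxycycline+IFNG MB135iDUX4-CTD (plus MB135iDUX4mL1dL2) myoblasts. Anti-FLAG pulldowns (3 h, 4 °C) were eluted in LDS buffer for western validation or with FLAG peptide for trypsin digestion and Orbitrap LC-MS; hits needed ≥2 PSMs in both experiments, ranked by total PSMs.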

Experimental findings from patent US20250339531A1, “DUX4 POLYPEPTIDES AND NUCLEIC ACIDS FOR TREATING INFLAMMATORY AND AUTOIMMUNE CONDITIONS” (Fred Hutchinson Cancer Center, priority 2021, published 2025) are described below.

B1: AP2A1 (protein)
chain: MPAVSKGDGMRGLAVFISDIRNCKSKEAEIKRINKELANIRSKFKGDKALDGYSKKKYVCKLLFIFLLGHDIDFGHMEAVNLLSSNKYTEKQIGYLFISVLVNSNSELIRLINNAIKNDLASRNPTFMCLALHCIANVGSREMGEAFAADIPRILVAGDSMDSVKQSAALCLLRLYKASPDLVPMGEWTARVVHLLNDQHMGVVTAAVSLITCLCKKNPDDFKTCVSLAVSRLSRIVSSASTDLQDYTYYFVPAPWLSVKLLRLLQCYPPPEDAAVKGRLVECLETVLNKAQEPPKSKKVQHSNAKNAILFETISLIIHYDSEPNLLVRACNQLGQFLQHRETNLRYLALESMCTLASSEFSHEAVKTHIDTVINALKTERDVSVRQRAADLLYAMCDRSNAKQIVSEMLRYLETADYAIREEIVLKVAILAEKYAVDYSWYVDTILNLIRIAGDYVSEEVWYRVLQIVTNRDDVQGYAAKTVFEALQAPACHENMVKVGGYILGEFGNLIAGDPRSSPPVQFSLLHSKFHLCSVATRALLLSTYIKFINLFPETKATIQGVLRAGSQLRNADVELQQRAVEYLTLSSVASTDVLATVLEEMPPFPERESSILAKLKRKKGPGAGSALDDGRRDPSSNDINGGMEPTPSTVSTPSPSADLLGLRAAPPPAAPPASAGAGNLLVDVFDGPAAQPSLGPTPEEAFLSELEPPAPESPMALLADPAPAADPGPEDIGPPIPEADELLNKFVCKNNGVLFENQLLQIGVKSEFRQNLGRMYLFYGNKTSVQFQNFSPTVVHPGDLQTQLAVQTKRVAAQVDGGAQVQQVLNIECLRDFLTPPLLSVRFRYGGAPQALTLKLPVTINKFFQPTEMAAQDFFQRWKQLSLPQQEAQKIFKANHPMDAEVTKAKLLGFGSALLDNVDPNPENFVGAGIIQTKALQVGCLLRLEPNAQAQMYRLTLRTSKEPVSRHLCELLAQQF
Regarding B1, the “4. mL1dL2 + Dox + IFNG” value was found to be 5.

B2: SLC3A2 (protein)
chain: SQDTEVDMKEVELNELEPEKQPMNAASGAAMSLAGAEKNGLVKIKVAEDEAEAAAAAKFTGLSKEELLKVAGSPGWVRTRWALLLLFWLGWLGMLAGAVVIIVRAPRCRELPAQKWWHTGALYRIGDLQAFQGHGAGNLAGLKGRLDYLSSLKVKGLVLGPIHKNQKDDVAQTDLLQIDPNFGSKEDFDSLLQSAKKKSIRVILDLTPNYRGENSWFSTQVDTVATKVKDALEFWLQAGVDGFQVRDIENLKDASSFLAEWQNITKGFSEDRLLIAGTNSSDLQQILSLLESNKDLLLTSSYLSDSGSTGEHTKSLVTQYLNATGNRWCSWSLSQARLLTSFLPAQLLRLYQLMLFTLPGTPVFSYGDEIGLDAAALPGQPMEAPVMLWDESSFPDIPGAVSANMTVKGQSEDPGSLLSLFRRLSDQRSKERSLLHGDFHAFSAGPGLFSYIRHWDQNERFLVVLNFGDVGLSAGLQASDLPASASLPAKADLLLSTQPGREEGSPLELERLKLEPHEGLLLRFPYAA
As for B2, the “4. + IFNG mix” value is 2 and the “4. mL1dL2 + Dox + IFNG” value was found to be 4.

B3: RTN4 (protein)
chain: MEDLDQSPLVSSSDSPPRPQPAFKYQFVREPEDEEEEEEEEEEDEDEDLEELEVLERKPAAGLSAAPVPTAPAAGAPLMDFGNDFVPPAPRGPLPAAPPVAPERQPSWDPSPVSSTVPAPSPLSAAAVSPSKLPEDDEPPARPPPPPPASVSPQAEPVWTPPAPAPAAPPSTPAAPKRRGSSGSVDETLFALPAASEPVIRSSAENMDLKEQPGNTISAGQEDFPSVLLETAASLPSLSPLSAASFKEHEYLGNLSTVLPTEGTLQENVSEASKEVSEKAKTLLIDRDLTEFSELEYSEMGSSFSVSPKAESAVIVANPREEIIVKNKDEEEKLVSNNILHNQQELPTALTKLVKEDEVVSSEKAKDSFNEKRVAVEAPMREEYADFKPFERVWEVKDSKEDSDMLAAGGKIESNLESKVDKKCFADSLEQTNHEKDSESSNDDTSFPSTPEGIKDRSGAYITCAPFNPAATESIATNIFPLLGDPTSENKTDEKKIEEKKAQIVTEKNTSTKTSNPFLVAAQDSETDYVTTDNLTKVTEEVVANMPEGLTPDLVQEACESELNEVTGTKIAYETKMDLVQTSEVMQESLYPAAQLCPSFEESEATPSPVLPDIVMEAPLNSAVPSAGASVIQPSSSPLEASSVNYESIKHEPENPPPYEEAMSVSLKKVSGIKEEIKEPENINAALQETEAPYISIACDLIKETKLSAEPAPDFSDYSEMAKVEQPVPDHSELVEDSSPDSEPVDLFSDDSIPDVPQKQDETVMLVKESLTETSFESMIEYENKEKLSALPPEGGKPYLESFKLSLDNTKDTLLPDEVSTLSKKEKIPLQMEELSTAVYSNDDLFISKEAQIRETETFSDSSPIEIIDEFPTLISSKTDSFSKLAREYTDLEVSHKSEIANAPDGAGSLPCTELPHDLSLKNIQPKVEEKISFSDDFSKNGSATSKVLLLPPDVSALATQAEIESIVKPKVLVKEAEKKLPSDTEKEDRSPSAIFSAELSKTSVVDLLYWRDIKKTGVVFGASLFLLLSLTVFSIVSVTAYIALALLSVTISFRIYKGVIQAIQKSDEGHPFRAYLESEVAISEELVQKYSNSALGHVNCTIKELRRLFLVDDLVDSLKFAVLMWVFTYVGALFNGLTLLILALISLFSVPVIYERHQAQIDHYLGLANKNVKDAMAKIQAKIPGLKRKAE
With B3, the “4. + IFNG mix” value was 5 and the “4. mL1dL2 + Dox + IFNG” value came to 5.

B4: PLOD1 (protein)
chain: KGDAKPEDNLLVLTVATKETEGFRRFKRSAQFFNYKIQALGLGEDWNVEKGTSAGGGQKVRLLKKALEKHADKEDLVILFADSYDVLFASGPRELLKKFRQARSQVVFSAEELIYPDRRLETKYPVVSDGKRFLGSGGFIGYAPNLSKLVAEWEGQDSDSDQLFYTKIFLDPEKREQINITLDHRCRIFQNLDGALDEVVLKFEMGHVRARNLAYDTLPVLIHGNGPTKLQLNYLGNYIPRFWTFETGCTVCDEGLRSLKGIGDEALPTVLVGVFIEQPTPFVSLFFQRLLRLHYPQKHMRLFIHNHEQHHKAQVEEFLAQHGSEYQSVKLVGPEVRMANADARNMGADLCRQDRSCTYYFSVDADVALTEPNSLRLLIQQNKNVIAPLMTRHGRLWSNFWGALSADGYYARSEDYVDIVQGRRVGVWNVPYISNIYLIKGSALRGELQSSDLFHHSKLDPDMAFCANIRQQDVFMFLTNRHTLGHLLSLDSYRTTHLHNDLWEVFSNPEDWKEKYIHQNYTKALAGKLVETPCPDVYWFPIFTEVACDELVEEMEHFGQWSLGNNKDNRIQGGYENVPTIDIHMNQIGFEREWHKFLLEYIAPMTEKLYPGYYTRAQFDLAFVVRYKPDEQPSLMPHHDASTFTINIALNRVGVDYEGGGCRFLRYNCSIRAPRKGWTLMHPGRLTHYHEGLPTTRGTRYIAVSFVDP
For the molecule B4, the “4. mL1dL2 + Dox + IFNG” value turned out to be 2.

B5: S100A9 (protein)
chain: MTCKMSQLERNIETIINTFHQYSVKLGHPDTLNQGEFKELVRKDLQNFLKKENKNEKVIEHIMEDLDTNADKQLSFEEFIMLMARLTWASHEKMHEGDEGPGHHHKPGLGEGTP
Take B5: the “4. mL1dL2 + Dox + IFNG” value is 2.

B6: HAT1 (protein)
chain: AGFGAMEKFLVEYKSAVEKKLAEYKCNTNTAIELKLVRFPEDLENDIRTFFPEYTHQLFGDDETAFGYKGLKILLYYIAGSLSTMFRVEYASKVDENFDCVEADDVEGKIRQIIPPGFCTNTNDFLSLLEKEVDFKPFGTLLHTYSVLSPTGGENFTFQIYKADMTCRGFREYHERLQTFLMWFIETASFIDVDDERWHYFLVFEKYNKDGATLFATVGYMTVYNYYVYPDKTRPRVSQMLILTPFQGQGHGAQLLETVHRYYTEFPTVLDITAEDPSKSYVKLRDFVLVKLCQDLPCFSREKLMQGFNEDMVIEAQQKFKINKQHARRVYEILRLLVTDMSDAEQYRSYRLDIKRRLISPYKKKQRDLAKMRKCLRPEELTNQMNQIEISMQHEQLEESFQELVEDYRRVIERLAQE
B6: the “4. + IFNG mix” value is 1 and the “4. mL1dL2 + Dox + IFNG” value is reported as 10.

B7: PRSS2 (protein)
chain: IVGGYICEENSVPYQVSLNSGYHFCGGSLISEQWVVSAGHCYKSAINSKLSGRGCEYHRIQVRLGEHNIEVLEGNEQFINAAKIIRHPKYNSRTLDNDILLIKLSSPAVINSRVSAISLPTAPPAAGTESLISGWGNTLSSGADYPDELQCLDAPVLSQAECEASYPGKITNNMFCVGFLEGGKDSCQGDSGGPVVSNGELQGIVSWGYGCAQKNRPGVYTKVYNYVDWIKDTIAANS
For B7, the “4. mL1dL2 + Dox + IFNG” value amounted to 1.

B8: PHGDH (protein)
chain: AFANLRKVLISDSLDPCCRKILQDGGLQVVEKQNLSKEELIAELQDCEGLIVRSATKVTADVINAAEKLQVVGRAGTGVDNVDLEAATRKGILVMNTPNGNSLSAAELTCGMIMCLARQIPQATASMKDGKWERKKFMGTELNGKTLGILGLGRIGREVATRMQSFGMKTIGYDPIISPEVSASFGVQQLPLEEIWPLCDFITVHTPLLPSTTGLLNDNTFAQCKKGVRVVNCARGGIVDEGALLRALQSGQCAGAALDVFTEEPPRDRALVDHENVISCPHLGASTKEAQSRCGEEIAVQFVDMVKGKSLTGVVNAQALTSAFSPHTKPWIGLAEALGTLMRAWAGSPKGTIQVITQGTSLKNAGNCLSPAVIVGLLKEASKQADVNLVNAKLLVKEAGLNVTTSHSPAAPGEQGFGECLLAVALAGAPYQAVGLVQGTTPVLQGLNGAVFRPEVPLRRDLPLLLFRTQTSDPAMLPTMIGLLAEAGVRLLSYQTSLVSDGETWHVMGISSLLPSLEAWKQHVTEAFQFHF
Consider B8, for which the “4. mL1dL2 + Dox + IFNG” value came out at 1.

B9: SLC25A3 (protein)
chain: AVEEQYSCDYGSGRFFILCGLGGIISCGTTHTALVPLDLVKCRMQVDPQKYKGIFNGFSVTLKEDGVRGLAKGWAPTFLGYSMQGLCKFGFYEVFKVLYSNMLGEENTYLWRTSLYLAASASAEFFADIALAPMEAAKVRIQTQPGYANTLRDAAPKMYKEEGLKAFYKGVAPLWMRQIPYTMMKFACFERTVEALYKFVVPKPRSECSKPEQLVVTFVAGYIAGVFCAIVSHPADSVVSVLNKEKGSSASLVLKRLGFKGVWKGLFARIIMIGTLTALQWFIYDSVKVYFRLPRPPPPEMPESLKKKLGLTQ
Regarding B9, the “4. + IFNG mix” value is recorded as 3 and the “4. mL1dL2 + Dox + IFNG” value was determined as 2.
